Results from paper PMC6800154.

Legend:
[1] = target: Focal adhesion kinase (FAK), endogenous in rat aortic smooth muscle cells (rat (endogenous in RASMs)) (UniProt O35346); experiment: co-IP
YFP-FAK (mouse) = YFP-FAK (mouse) (UniProt P34152); experiment: FRET or BRET
UniProt P34152, sequence (P34152 whole entry): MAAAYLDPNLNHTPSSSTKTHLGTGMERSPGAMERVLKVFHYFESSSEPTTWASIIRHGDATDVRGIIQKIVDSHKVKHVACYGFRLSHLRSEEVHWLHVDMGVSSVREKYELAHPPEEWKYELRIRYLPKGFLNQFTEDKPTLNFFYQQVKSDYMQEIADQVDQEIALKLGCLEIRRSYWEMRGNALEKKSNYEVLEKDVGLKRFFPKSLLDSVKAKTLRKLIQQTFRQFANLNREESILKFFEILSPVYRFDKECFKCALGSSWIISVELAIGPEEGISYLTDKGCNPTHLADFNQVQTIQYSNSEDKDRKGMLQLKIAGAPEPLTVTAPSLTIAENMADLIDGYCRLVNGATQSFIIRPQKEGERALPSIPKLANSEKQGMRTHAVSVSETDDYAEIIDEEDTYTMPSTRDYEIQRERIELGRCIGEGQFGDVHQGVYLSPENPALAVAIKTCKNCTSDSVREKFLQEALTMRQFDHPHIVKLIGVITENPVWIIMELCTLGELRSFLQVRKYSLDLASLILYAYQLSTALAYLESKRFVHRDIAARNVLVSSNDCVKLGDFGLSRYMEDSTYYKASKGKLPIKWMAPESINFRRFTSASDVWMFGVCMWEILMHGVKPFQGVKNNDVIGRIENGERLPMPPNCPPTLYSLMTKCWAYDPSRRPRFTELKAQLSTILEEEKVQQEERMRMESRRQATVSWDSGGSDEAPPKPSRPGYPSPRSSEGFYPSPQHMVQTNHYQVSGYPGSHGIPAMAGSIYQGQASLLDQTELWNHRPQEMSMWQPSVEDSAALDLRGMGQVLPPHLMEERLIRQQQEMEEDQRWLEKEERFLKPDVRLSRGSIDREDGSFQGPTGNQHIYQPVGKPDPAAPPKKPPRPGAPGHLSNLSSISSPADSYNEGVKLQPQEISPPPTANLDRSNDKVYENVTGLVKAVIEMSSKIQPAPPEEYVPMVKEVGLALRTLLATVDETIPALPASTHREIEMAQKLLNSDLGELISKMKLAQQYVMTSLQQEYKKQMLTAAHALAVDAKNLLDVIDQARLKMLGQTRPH

UniProt O35346, sequence (O35346 whole entry): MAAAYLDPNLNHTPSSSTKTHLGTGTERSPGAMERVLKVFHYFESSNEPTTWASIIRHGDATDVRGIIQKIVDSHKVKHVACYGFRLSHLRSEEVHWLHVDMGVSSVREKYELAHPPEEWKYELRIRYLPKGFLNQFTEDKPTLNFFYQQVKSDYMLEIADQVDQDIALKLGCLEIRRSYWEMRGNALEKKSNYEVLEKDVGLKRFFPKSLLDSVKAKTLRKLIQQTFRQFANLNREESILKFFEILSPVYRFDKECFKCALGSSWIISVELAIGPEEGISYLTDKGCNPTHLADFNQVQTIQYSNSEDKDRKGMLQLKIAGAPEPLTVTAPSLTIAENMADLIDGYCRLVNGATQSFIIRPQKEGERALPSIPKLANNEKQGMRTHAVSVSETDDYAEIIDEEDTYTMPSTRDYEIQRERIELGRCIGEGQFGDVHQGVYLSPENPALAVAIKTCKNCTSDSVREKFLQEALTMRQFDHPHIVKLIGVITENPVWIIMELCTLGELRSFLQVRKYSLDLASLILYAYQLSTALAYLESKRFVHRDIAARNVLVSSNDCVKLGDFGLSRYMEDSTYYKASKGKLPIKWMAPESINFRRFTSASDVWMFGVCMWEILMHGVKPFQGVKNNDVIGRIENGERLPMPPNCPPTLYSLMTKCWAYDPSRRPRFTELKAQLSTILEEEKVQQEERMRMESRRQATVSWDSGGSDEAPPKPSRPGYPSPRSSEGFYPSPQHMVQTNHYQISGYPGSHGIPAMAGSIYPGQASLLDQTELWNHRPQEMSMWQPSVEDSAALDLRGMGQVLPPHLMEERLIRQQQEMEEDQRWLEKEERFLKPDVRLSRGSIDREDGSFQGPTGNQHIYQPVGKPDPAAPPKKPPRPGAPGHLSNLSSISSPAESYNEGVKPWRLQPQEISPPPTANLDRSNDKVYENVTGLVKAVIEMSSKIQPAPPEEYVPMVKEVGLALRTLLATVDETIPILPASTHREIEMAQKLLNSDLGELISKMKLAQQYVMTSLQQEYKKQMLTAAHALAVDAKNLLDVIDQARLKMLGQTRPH

- fold co-immunoprecipitation against WT-FRNK [1]: 5 fold
- FRET efficiency (YFP-FAK (mouse)): 53%
Substance: cyan fluorescent protein (CFP) S217A-FRNK (natural protein)
